Laboratory results taken from US20260159601A1 (Hoffmann-La Roche, published 2026).

What was measured:
[1] = molecular target: T1, cynomolgus monkey transferrin receptor 1 (cynomolgus monkey, UniProt H9EXL1 89-760 (rhesus entry)); assay: surface plasmon resonance at 37° C.; cynomolgus TfR1; SPR at 37° C.
T1 construct: also called cyTfR1

human CD20 [2] = molecular target: T2, human CD20 (human, UniProt P11836 1-297); assay: flow cytometry on a human B-cell lymphoma cell line, 30 min at 4 C, detection with FITC-labeled F(ab)'2 goat anti-human Fc-gamma-specific antibody, median fluorescence intensity
T2 construct: On a human B-cell lymphoma cell line, human tonsil-derived B-cells and human PBMC B-cells; also called huCD20; MS4A1
T2 sequence: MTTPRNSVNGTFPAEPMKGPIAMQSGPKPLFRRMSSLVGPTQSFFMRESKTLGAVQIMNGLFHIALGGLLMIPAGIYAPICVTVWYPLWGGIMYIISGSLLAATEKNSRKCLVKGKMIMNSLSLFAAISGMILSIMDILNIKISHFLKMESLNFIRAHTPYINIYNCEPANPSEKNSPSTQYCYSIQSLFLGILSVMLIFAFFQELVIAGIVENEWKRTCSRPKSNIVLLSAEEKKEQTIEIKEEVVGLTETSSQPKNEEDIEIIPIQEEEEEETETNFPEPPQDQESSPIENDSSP

[3] = molecular target: CD20 (species not stated, in-vitro-measured KD used in the cynomolgus monkey PK model); assay: in vitro measurement, method not stated; value used in the PK model
human CD20 [4] = molecular target: T2, human CD20; assay: cell-based or functional assay
[5] = molecular target: human transferrin receptor 1 on MDCKII cells transfected with huTfR1 (human, UniProt P02786 1-760); assay: cell-based or functional assay
Sequence of human transferrin receptor 1 on MDCKII cells transfected with huTfR1 (P02786 whole entry): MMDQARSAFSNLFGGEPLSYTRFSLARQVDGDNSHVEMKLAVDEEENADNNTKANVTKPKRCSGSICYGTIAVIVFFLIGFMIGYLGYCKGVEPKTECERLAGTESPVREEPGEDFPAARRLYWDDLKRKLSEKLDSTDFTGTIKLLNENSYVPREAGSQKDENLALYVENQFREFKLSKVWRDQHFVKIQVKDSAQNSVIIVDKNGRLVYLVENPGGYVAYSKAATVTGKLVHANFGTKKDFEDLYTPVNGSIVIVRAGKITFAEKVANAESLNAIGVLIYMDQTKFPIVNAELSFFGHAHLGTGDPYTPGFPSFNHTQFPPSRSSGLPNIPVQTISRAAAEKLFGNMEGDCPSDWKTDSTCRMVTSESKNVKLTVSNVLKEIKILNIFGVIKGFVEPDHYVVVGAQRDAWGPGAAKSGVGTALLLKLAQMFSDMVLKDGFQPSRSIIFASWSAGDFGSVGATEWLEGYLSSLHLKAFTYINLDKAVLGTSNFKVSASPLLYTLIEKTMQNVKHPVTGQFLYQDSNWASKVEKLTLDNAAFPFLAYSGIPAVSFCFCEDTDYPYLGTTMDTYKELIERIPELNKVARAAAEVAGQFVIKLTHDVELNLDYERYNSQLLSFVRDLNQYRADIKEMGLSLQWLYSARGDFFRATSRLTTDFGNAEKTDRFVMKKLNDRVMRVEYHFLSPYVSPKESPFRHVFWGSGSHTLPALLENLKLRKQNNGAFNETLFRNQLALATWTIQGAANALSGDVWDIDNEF

T1 sequence (chain, as listed by the source): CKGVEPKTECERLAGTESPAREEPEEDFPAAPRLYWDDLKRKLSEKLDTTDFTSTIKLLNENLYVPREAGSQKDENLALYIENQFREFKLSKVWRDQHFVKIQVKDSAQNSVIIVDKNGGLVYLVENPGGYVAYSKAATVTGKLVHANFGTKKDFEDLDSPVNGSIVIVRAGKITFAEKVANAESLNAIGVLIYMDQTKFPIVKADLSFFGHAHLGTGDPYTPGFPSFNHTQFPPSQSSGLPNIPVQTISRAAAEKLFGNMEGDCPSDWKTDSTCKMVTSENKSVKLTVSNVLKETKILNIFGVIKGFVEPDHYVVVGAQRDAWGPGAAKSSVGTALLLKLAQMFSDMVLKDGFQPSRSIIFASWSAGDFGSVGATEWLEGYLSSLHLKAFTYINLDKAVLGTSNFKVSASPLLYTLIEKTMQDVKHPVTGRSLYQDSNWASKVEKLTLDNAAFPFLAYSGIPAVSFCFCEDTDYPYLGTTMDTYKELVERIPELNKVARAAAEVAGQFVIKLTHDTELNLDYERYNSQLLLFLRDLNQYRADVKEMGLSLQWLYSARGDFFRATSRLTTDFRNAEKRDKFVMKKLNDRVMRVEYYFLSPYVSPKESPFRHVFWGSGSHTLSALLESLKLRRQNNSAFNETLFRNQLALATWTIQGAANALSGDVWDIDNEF

B1: RG6035 (bispecific antibody, human IgG1, kappa, L234A L235A)
light 1: DIVMTQTPLSLPVTPGEPASISCRSSKSLLHSNGITYLYWYLQKPGQSPQLLIYQMSNLVSGVPDRFSGSGSGTDFTLKISRVEAEDVGVYYCAQNLELPYTFGGGTKVEIKRTVAAPSVFIFPPSDRKLKSGTASVVCLLNNFYPREAKVQWKVDNALQSGNSQESVTEQDSKDSTYSLSSTLTLSKADYEKHKVYACEVTHQGLSSPVTKSFNRGEC
heavy 1: VQLVQSGAEVKKPGSSVKVSCKASGYAFSYSWINWVRQAPGQGLEWMGRIFPGDGDTDYNGKFKGRVTITADKSTSTAYMELSSLRSEDTAVYYCARNVFDGYWLVYWGQGTLVTVSSASTKGPSVFPLAPSSKSTSGGTAALGCLVEDYFPEPVTVSWNSGALTSGVHTFPAVLQSSGLYSLSSVVTVPSSSLGTQTYICNVNHKPSNTKVDEKVEPKSCDKTHTCPPCPAPEAAGGPSVFLFPPKPKDTLMISRTPEVTCVVVDVSHEDPEVKFNWYVDGVEVHNAKTKPREEQYNSTYRVVSVLTVLHQDWLNGKEYKCKVSNKALGAPIEKTISKAKGQPREPQVCTLPPSRDELTKNQVSLSCAVKGFYPSDIAVEWESNGQPENNYKTTPPVLDSDGSFFLVSKLTVDKSRWQQGNVFSCSVMHEALHNHYTQKSLSLSPG
light 2: AIQLTQSPSSLSASVGDRVTITCRASQSISSYLAWYQQKPGKAPKLLIYRASTLASGVPSRFSGSGSGTDFTLTISSLQPEDFATYYCQQNYASSNVDNTFGGGTKVEIKSSASTKGPSVFPLAPSSKSTSGGTAALGCLVKDYFPEPVTVSWNSGALTSGVHTFPAVLQSSGLYSLSSVVTVPSSSLGTQTYICNVNHKPSNTKVDKKVEPKSC
heavy 2: not shown
notes: human IgG1 Fc with L234A, L235A, P329G; also called RO7121932; BS-CD20
Kd [1]: 694 nM
EC50 (read off the curve) (human CD20 [2]): ~3 nM
Kd [3]: 3.3 nM
EC50 of CD19+-B-cell depletion, ex vivo human tonsil-derived cells, average of three donors (human CD20 [4]): 0.4 nM
EC50 of CD19+-B-cell depletion, ex vivo human tonsil-derived cells, donor T1 (human CD20 [4]): 0.44 nM
EC50 of CD19+-B-cell depletion, ex vivo human tonsil-derived cells, donor T2 (human CD20 [4]): 0.2 nM
EC50 of CD19+-B-cell depletion, ex vivo human tonsil-derived cells, donor T3 (human CD20 [4]): 0.55 nM
intracellular uptake in MDCKII-huTfR cells against non-transfected MDCKII-parental cells, 30-minute pulse, IgG ELISA [5]: 30 fold
